Experimental data taken from publication PMC4861259, “An Interplay of S-Nitrosylation and Metal Ion Binding for Astrocytic S100B Protein” (PLoS ONE, 2016).

B1: recombinant human S100B protein, unmodified (S100BSH) (natural protein, UniProt P04271 1-92, looked up)
chain: MSELEKAMVALIDVFHQYSGREGDKHKLKKSELKELINNELSHFLEEIKEQEVVDKVMETLDNDGDGECDFQEFMAFVAMVTTACHEFFEHE
notes: S100B protein, human, recombinant; Non-covalent homodimer; source: E. coli bacterial culture, purified (semi-preparative HPLC, C18)
B2: recombinant human S100B protein, S-nitrosylated at Cys84 (S100BSNO) (natural protein, UniProt P04271 1-92, looked up)
chain: B1 chain
modifications: S-nitrosylated cysteine (SNO) at Cys84
notes: S100B protein, human, recombinant, chemically S-nitrosylated at Cys84; Non-covalent homodimer; also called S100BNO; S-nitrosylated S100B; source: E. coli, chemically S-nitrosylated, purified (semi-preparative HPLC, C18)

Biological target: the molecule itself
Test: SEC; Superdex 75 10/300 GL; 200 μl of 100 μM protein loaded, before and after every ITC run, in the ITC buffers (10 mM TES pH 7.2 with 15 mM or 150 mM NaCl, with or without CaCl2)

Protein	stoichiometry N
B1	2
B2	2
